Assay in all cases: cell-based or functional assay
For assay [1], the target named is human wildtype CSF-1R (wt CSF-1R), full-length, on cells (human) (UniProt P07333).
Assay [2] addresses CSF-1R on cynomolgous monocytes (native receptor of CD14-enriched peripheral blood monocytes) (cynomolgous).
Assay [3] concerns the target human mutant CSF-1R L301S Y969F, full-length, on cells (human) (UniProt P07333).

Consider “Anti CSF-1R SC 2-4A5 (Santa Cruz Biotechnology, US) (antibody)”, for which, in assay [1], the IC50 CSF-1R Phosphorylation was 1010 ng/mL; the wtCSF-1R IC30 [µg/ml] (cell viability, 3D culture, CellTiterGlo) came to 16.6 µg/mL; the wtCSF-1R IC50 [µg/ml] (cell viability, 3D culture, CellTiterGlo) was found to be 10 µg/mL. In addition, in assay [2], the % inhibition (of survival) = (100% - % survival) (CellTiterGlo; cynomolgous monocytes with 150 ng/ml huCSF-1; 5 µg/ml antibody) was found to be 69% and the % survival (CellTiterGlo; cynomolgous monocytes with 150 ng/ml huCSF-1; 5 µg/ml antibody) was found to be 31%. Moreover, in assay [3], the Mutant CSF-1R IC30 [µg/ml] (cell viability, 3D culture, CellTiterGlo) amounted to 2.56 µg/mL and the Mutant CSF-1R IC50 [µg/ml] (cell viability, 3D culture, CellTiterGlo) amounted to 10 µg/mL.
For orientation: % inhibition means how much of the control response was suppressed. A high value points to a strong effect. In assay [1], “goat polyclonal anti-CSF-1R antibody ab10676 (abcam)” yielded a wtCSF-1R IC30 [µg/ml] (cell viability, 3D culture, CellTiterGlo) of 14.2 µg/mL. In assay [3], the % inhibition at 20 µg/ml (mutant CSF-1R cells) amounted to 0% and the Mutant CSF-1R IC30 [µg/ml] (cell viability, 3D culture, CellTiterGlo) is above 20 µg/mL.
